Drawing on publication PMC4011913, this text covers Kd, koff and kon for 1 substance.

What all share (assay): SPR
In general terms: In SPR one partner is held on a chip, and binding of the other changes the refractive index at the surface.

The target in assay [1] is humanized IgG1 anti-herpes simplex virus glycoprotein D antibody, wild type (human).
For assay [2], the target named is humanized anti-gD IgG1 variant T307Q/N434A (human).
For assay [3], the target named is humanized anti-gD IgG1 variant H310Q (human).

What is called Kd is the free concentration of one partner at which half of the binding sites on the other are occupied at equilibrium, for simple one-to-one binding. Read a low Kd as higher affinity. One may read the koff as the first-order rate constant of dissociation. Read a high koff as fast dissociation. Usually kon stands for the rate constant with which the complex forms. Low values mean slow association, high ones fast association.

Consider “Soluble murine FcRn (neonatal Fc receptor) (from UniProt Q61559 22-297)”, for which the Kd in assay [1] worked out at 601 nM; in assay [2] it was 108 nM; in assay [3], 93000 nM. The koff in assay [1] was 0.0037 s⁻¹; in assay [2], 0.0021 s⁻¹; in assay [3], 0.115 s⁻¹. Also, the kon in assay [1] came to 6160 M⁻¹ s⁻¹; in assay [2], 19100 M⁻¹ s⁻¹; in assay [3], 1230 M⁻¹ s⁻¹.
